Results published in publication PMC3315481, “Phosphorylation of the Drosophila melanogaster RNA–Binding Protein HOW by MAPK/ERK Enhances Its Dimerization and Activity” (PLoS Genetics, 2012).

Molecular target: the molecule itself
Test: co-IP; S2R+ cells co-transfected with GFP-fused and HA-tagged HOW(L) variants (or gfp with how(l)^WT-HA); lysis in 1% NP40 buffer (50 mM Tris pH 7.5, 100 mM NaCl); IP with mouse anti-GFP on protein A/G beads 1-2 h at 4°C; Western blot with anti-HOW; co-precipitated HA protein normalised to its crude level and to the precipitated GFP protein

Protein | co-immunoprecipitated HA protein, normalised, relative to HOW(L)^WT
Held Out Wings, long isoform, phospho-mutant T59A T64A (HOW(L)^TTAA) (natural protein, Drosophila melanogaster, UniProt O01367 1-405, looked up, Held Out Wings (HOW), isoform HOW(L), Drosophila melanogaster, with T59 and T64 mutated to alanine; Two differently tagged copies met in the co-IP: one fused to GFP (bait, vector pTGW) and one tagged with HA (prey, vector pTWH); also called HOW^TTAA; gfp-how(l)^TTAA; source: S2R+ cells, co-transfected, in lysate) MSVCESKAVVQQQLQQHLQQQAAAAVVAVAQQQQAQAQAQAQAQAQQQQQAPQVVVPMAPQHLAPQQQQQSTQSIADYLAQLLKDRKQLAAFPNVFTHVERLLDEEIARVRASLFQINGVKKEPLTLPEPEGSVVTMNEKVYVPVREHPDFNFVGRILGPRGMTAKQLEQETGCKIMVRGKGSMRDKKKEDANRGKPNWEHLSDDLHVLITVEDTENRATVKLAQAVAEVQKLLVPQAEGEDELKKRQLMELAIINGTYRDTTAKSVAVCDEEWRRLVAASDSRLLTSTGLPGLAAQIRAPAAAPLGAPLILNPRMTVPTTAASILSAQAAPTAAFDQTGHGMIFAPYDYANYAALAGNPLLTEYADHSVGAIKQQRRLATNREHPYQRATVGVPAKPAGFIEIQ | 0.56 ± 0.14
Held Out Wings, long isoform, dimerization mutant E106G (HOW(L)^EG) (natural protein, Drosophila melanogaster, UniProt O01367 1-405, looked up, Held Out Wings (HOW), isoform HOW(L), Drosophila melanogaster, with E106 mutated to glycine; Two differently tagged copies met in the co-IP: one fused to GFP (bait, vector pTGW) and one tagged with HA (prey, vector pTWH); also called HOW^EG; gfp-how(l)^EG; source: S2R+ cells, co-transfected, in lysate) MSVCESKAVVQQQLQQHLQQQAAAAVVAVAQQQQAQAQAQAQAQAQQQQQAPQVVVPMTPQHLTPQQQQQSTQSIADYLAQLLKDRKQLAAFPNVFTHVERLLDEGIARVRASLFQINGVKKEPLTLPEPEGSVVTMNEKVYVPVREHPDFNFVGRILGPRGMTAKQLEQETGCKIMVRGKGSMRDKKKEDANRGKPNWEHLSDDLHVLITVEDTENRATVKLAQAVAEVQKLLVPQAEGEDELKKRQLMELAIINGTYRDTTAKSVAVCDEEWRRLVAASDSRLLTSTGLPGLAAQIRAPAAAPLGAPLILNPRMTVPTTAASILSAQAAPTAAFDQTGHGMIFAPYDYANYAALAGNPLLTEYADHSVGAIKQQRRLATNREHPYQRATVGVPAKPAGFIEIQ | 0.13 ± 0.04
